Here are results for 3 molecules from publication PMC12132311 (bioRxiv, 2025).

Values joined by “and” are separate entries in the source; they are usually repeats but may differ in a detail not shown here. Equal entries are not always repeated. No end group written: not given here. *: point of attachment. FITC = O=C1OC2(c3ccc(O)cc3Oc3cc(O)ccc32)c2ccc(NC(=S)*)cc21; 5FAM = O=C1OC2(c3ccc(O)cc3Oc3cc(O)ccc32)c2ccc(C(=O)*)cc21; Ahx = NCCCCCC(=O)O

The target in test [1] is Biotinylated CHIP (Homo sapiens, UniProt Q9UNE7, biotin (site and way of biotinylation not stated)). The test is described as follows: BLI.
For test [2], the target named is Carboxyl terminus of Hsc70-interacting protein (CHIP/STUB1), human, WT, full length (human, UniProt Q9UNE7). The test is described as follows: cryo-EM structure.
In test [3] the target is T1, Carboxyl terminus of Hsc70-interacting protein (CHIP/STUB1), human, WT, full length (human), Q9UNE7.
T1 chain: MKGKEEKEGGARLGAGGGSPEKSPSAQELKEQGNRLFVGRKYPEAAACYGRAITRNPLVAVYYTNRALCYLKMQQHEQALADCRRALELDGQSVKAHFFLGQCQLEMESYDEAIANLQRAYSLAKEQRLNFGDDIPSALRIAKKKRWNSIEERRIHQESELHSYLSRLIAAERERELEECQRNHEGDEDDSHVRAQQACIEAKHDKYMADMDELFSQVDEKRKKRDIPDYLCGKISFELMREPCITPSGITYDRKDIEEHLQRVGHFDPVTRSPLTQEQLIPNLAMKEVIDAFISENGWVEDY
In words: cryo-EM structure. As to conditions: remark: other sources report otherwise.

Test [4] addresses T2, CHIP-optimized peptide CHIPopt (FITC-Ahx-LWWPD).
T2 peptide: {FITC-Ahx}-LWWPD
In words: fluorescence polarisation.

For test [5], the target named is T3, FAM-labeled Hsp70 C-terminal peptide (5FAM-Ahx-SSGPTIEEVD).
T3 peptide: {5FAM-Ahx}-SSGPTIEEVD
The test is described as follows: fluorescence polarisation. For orientation: Polarisation of emitted light reports the rotation of a fluorescent probe.

The target of test [6] is T2, CHIP-optimized peptide CHIPopt …. The test is described as follows: fluorescence polarisation.
For test [7], the target named is T3, FAM-labeled Hsp70 C-terminal peptide …. In words: fluorescence polarisation.

B1: Fab 2D2 (CHIP-targeting fragment antigen-binding antibody) (Fab, V domains shown)
VH: QVQLQQSGPGLMKGGQTLSLTCAISGDSVSSNSAAWNWIRQSPSRGLEWLGRTYYRSKWYNEYAVSVKSRITINPDTSKNQFSLQLNSVTPEDTAVYYCARAVAASFDYWGQGTLVTVSS
VL: ETTLTQSPGTLSLSPGERATLSCRASQSVSSTFLAWYQQKPGQAPRLLIYGASRRATGIPDRFSGSGSGTDFTLTISRLEPEDFAVYYCQRYGATYTFGQGTKLEIK
As usually defined, the Kd is the constant that tells how readily two partners part at equilibrium. A lower Kd goes with a tighter complex. By stoichiometry N is commonly meant a count of units in the complex or per binding partner. B1: in test [1], binding was characterised by a dissociation constant (Kd) of 40 nM. Further, the “stoichiometry N” value in test [2] is 1 Fab per CHIP dimer (printed as 2:1 CHIP:Fab).

B2: Fab H1 (CHIP-targeting fragment antigen-binding antibody) (Fab, V domains shown)
VH: VQLVQSGSEVKKPGASVKVSCKASGYTFTNYGISWVRQAPGQGLEWMGWISAYNGNTNYAQNFQGRVTMTTDTSTKTAYMELRSLRSDDTAVYFCARSGYSGYDNNLGAFDIWGQGTMVTVSS
VL: SVVTQPPSVSAAPGQKVTISCSGTSSNIGNSYVTWYQQLPGAAPKLLIYDNNKRPSGIPDRFSGSKSGTSATLGITGLQTGDEADYYCATWDSSLTAGRVFGGGTRLTVL
B2: the dissociation constant Kd in test [1] turned out to be 1100 nM. Further, the “stoichiometry N” value in test [2] was 1 Fab per CHIP dimer (printed as 2:1 CHIP:Fab) and 2 Fab per CHIP dimer (printed as 2:2 CHIP:Fab).

B3: Carboxyl terminus of Hsc70-interacting protein (CHIP/STUB1), human, WT, full length (enzyme)
chain: T1 chain
B3: in test [3], the stoichiometry N turned out to be 2. Further, the entries for the “apparent Kd with Fab 2D2 present” value in test [4] and in test [5] were 0.016 nM and 260 nM, respectively. Moreover, the “apparent Kd with Fab H1 present” value in test [6] is 0.01 nM; in test [7], 140 nM.
